From the Immune Epitope Database (IEDB)

Columns and labels:
[1] = target: HLA-A*24:02; assay: IEDB peptide-MHC binding, purified MHC/competitive/radioactivity; filed as Kd, often an IC50 or EC50 that approximates it; ≥ and ≤ were set here for values at or beyond the usual limits of such assays
[2] = target: HLA-A*26:01; assay: as above
[3] = target: HLA-A*30:02; assay: as above
[4] = target: HLA-A*01:01; assay: as above
[5] = target: HLA-A*29:02; assay: as above
[6] = target: HLA-A*23:01; assay: as above
[7] = target: HLA-B*40:01; assay: as above
[8] = target: HLA-A*69:01; assay: IEDB peptide-MHC binding, purified MHC/direct/fluorescence; filed as Kd, often an IC50 or EC50 that approximates it; ≥ and ≤ were set here for values at or beyond the usual limits of such assays
[9] = target: HLA-A*31:01; assay: as above
[10] = target: HLA-B*44:02; assay: as above
[11] = target: HLA-B*15:01; assay: as above
[12] = target: HLA-A*24:03; assay: as above; settings: source organism: Giardia lamblia ATCC 50803
[13] = target: HLA-B*08:01; assay: as above
[14] = target: HLA-A*26:01; assay: as above
[15] = target: HLA-B*58:01; assay: as above
[16] = target: HLA-A*03:01; assay: as above
[17] = target: HLA-A*01:01; assay: as above; settings: source organism: Giardia lamblia ATCC 50803
[18] = target: HLA-A*02:01; assay: as above
[19] = target: HLA-B*27:05; assay: as above
[20] = target: HLA-A*11:01; assay: as above
[21] = target: HLA-B*40:01; assay: as above
[22] = target: HLA-B*07:02; assay: as above; settings: source organism: Corynebacterium efficiens
[23] = target: HLA-B*15:17; assay: IEDB peptide-MHC binding, purified MHC/competitive/fluorescence; filed as Kd, often an IC50 or EC50 that approximates it; ≥ and ≤ were set here for values at or beyond the usual limits of such assays; settings: source organism: Corynebacterium glutamicum
[24] = target: HLA-B*15:01; assay: as above; settings: source organism: Bacillus cereus G9241
[25] = source organism: SARS coronavirus Tor2
[26] = source organism: Dengue virus 1 Brazil/97-11/1997
[27] = source organism: Giardia lamblia ATCC 50803
[28] = source organism: Lassa virus Josiah
[29] = source organism: Mammarenavirus brazilense
[30] = source organism: Mammarenavirus whitewaterense
[31] = source organism: Corynebacterium glutamicum
[32] = source organism: Corynebacterium efficiens
[33] = source organism: Mammarenavirus juninense
[34] = source organism: Influenza A virus (A/egret/Hong Kong/757.3/2002(H5N1))
[35] = source organism: Dengue virus 2 Jamaica/1409/1983

Sequence: IGAGICASY
- Kd [1, 25]: ≥ 60 µM
- Kd [2, 25]: 6.65 µM
- Kd [3, 25]: 0.00118 µM
- Kd [4, 25]: ≥ 47.8 µM
- Kd [5, 25]: 0.0199 µM
- Kd [6, 25]: ≥ 77.8 µM

Sequence: VEEQDANFV
- Kd [7, 26]: 0.412 µM

Sequence: IEEGRTLRVL
- Kd [7, 26]: 0.0718 µM

Sequence: PPQATAKYL
- Kd [8, 27]: ≥ 20 µM
- Kd [9, 27]: ≥ 20 µM
- Kd [10, 27]: ≥ 20 µM
- Kd [11, 27]: ≥ 20 µM
- Kd [12]: 9.66 µM
- Kd [13, 27]: ≥ 20 µM
- Kd [14, 27]: ≥ 20 µM
- Kd [15, 27]: ≥ 20 µM
- Kd [16, 27]: ≥ 20 µM
- Kd [17]: ≥ 20 µM
- Kd [18, 27]: ≥ 20 µM
- Kd [19, 27]: ≥ 20 µM
- Kd [20, 27]: ≥ 20 µM
- Kd [21, 27]: ≥ 20 µM

Sequence: FFASFYYIW
- Kd [1, 25]: 0.0209 µM
- Kd [2, 25]: ≥ 26.2 µM
- Kd [3, 25]: ≥ 67.1 µM
- Kd [4, 25]: ≥ 37.6 µM
- Kd [5, 25]: 0.0945 µM
- Kd [6, 25]: 0.176 µM

Sequence: PEDPVEIALY
- Kd [1, 28]: ≥ 70.3 µM
- Kd [2, 28]: ≥ 69.7 µM
- Kd [3, 28]: 0.961 µM
- Kd [4, 28]: ≥ 34.4 µM
- Kd [5, 28]: 15 µM
- Kd [6, 28]: ≥ 70 µM

Sequence: GYKETPFLTI
- Kd [1, 29]: 0.159 µM
- Kd [5, 29]: 0.108 µM
- Kd [6, 29]: 0.139 µM

Sequence: YYCKSHKPPI
- Kd [1, 25]: 0.193 µM
- Kd [2, 25]: ≥ 69.7 µM
- Kd [3, 25]: 11.5 µM
- Kd [4, 25]: ≥ 48.3 µM
- Kd [5, 25]: 1.62 µM
- Kd [6, 25]: 0.207 µM

Sequence: LTGHMLDMY
- Kd [1, 25]: ≥ 77.6 µM
- Kd [2, 25]: 10.5 µM
- Kd [3, 25]: 0.0728 µM
- Kd [4, 25]: 0.000563 µM
- Kd [5, 25]: 0.0611 µM
- Kd [6, 25]: ≥ 77.8 µM

Sequence: CSYKIGHHV
- Kd [1, 30]: ≥ 29.2 µM
- Kd [2, 30]: ≥ 64.5 µM
- Kd [3, 30]: 0.0944 µM
- Kd [4, 30]: 0.0591 µM
- Kd [5, 30]: ≥ 26.3 µM
- Kd [6, 30]: 17.5 µM

Sequence: ITWETPMIW
- Kd [8, 31]: 0.507 µM
- Kd [9, 32]: ≥ 20 µM
- Kd [11, 32]: ≥ 20 µM
- Kd [13, 32]: ≥ 20 µM
- Kd [14, 32]: ≥ 20 µM
- Kd [15, 31]: 0.00443 µM
- Kd [16, 32]: ≥ 20 µM
- Kd [18, 32]: ≥ 20 µM
- Kd [19, 32]: ≥ 20 µM
- Kd [20, 32]: ≥ 20 µM
- Kd [22]: ≥ 20 µM
- Kd [21, 32]: ≥ 20 µM
- Kd [23]: ≤ 0.001 µM

Sequence: SMRSVQRNTV
- Kd [1, 33]: ≥ 70.3 µM
- Kd [2, 33]: ≥ 69.7 µM
- Kd [3, 33]: 7.86 µM
- Kd [4, 33]: 2.99 µM
- Kd [5, 33]: ≥ 71.4 µM
- Kd [6, 33]: ≥ 70 µM

Sequence: NAAISDYDYY
- Kd [1, 25]: ≥ 70.3 µM
- Kd [2, 25]: 1.64 µM
- Kd [3, 25]: 0.274 µM
- Kd [4, 25]: 0.0124 µM
- Kd [5, 25]: 0.688 µM
- Kd [6, 25]: ≥ 70 µM

Sequence: HEGYEEFTM
- Kd [10, 34]: ≥ 20 µM
- Kd [21, 34]: 0.0119 µM

Sequence: RKIKAITSF
- Kd [24]: 1.88 µM

Sequence: KEFAAGRKSL
- Kd [7, 35]: 0.00963 µM

Sequence: GEEVQVLAL
- Kd [7, 35]: 0.00309 µM
